The chains are these.
B1: NKG2D monoclonal antibody comprising F47 (antibody, V domains shown)
VH: QVQLQQWGAGLLKPSETLSLTCAVYGGSFSGYYWSWIRQPPGKGLEWIGEIDHSGSTNYNPSLKSRVTISVDTSKNQFSLKLSSVTAADTAVYYCARARGPWSFDPWGQGTLVTVSS
VL: DIQMTQSPSTLSASVGDRVTITCRASQSISSWLAWYQQKPGKAPKLLIYKASSLESGVPSRFSGSGSGTEFTLTISSLQPDDFATYYCQQYDTFITFGGGTKVEIK
notes: Monoclonal antibody
B2: CD33-TriNKET-A44 (ADI-27744 and a CD33 binding domain) (bispecific antibody, V domains shown)
VH 1: not shown
VL 1: DIQMTQSPSSVSASVGDRVTITCRASQGIDSWLAWYQQKPGKAPKLLIYAASSLQSGVPSRFSGSGSGTDFTLTISSLQPEDFATYYCQQGVSYPRTFGGGTKVEIK
VH 2: QVQLVQSGAEVKKPGASVKVSCKASGYTFTDYVVHWVRQAPGQGLEWMGYINPYNDGTKYNEKFKGRVTMTRDTSISTAYMELSRLRSDDTAVYYCARDYRYEVYGMDYWGQGTLVTVSS
VL 2: DIVLTQSPASLAVSPGQRATITCTASSSVNYIHWYQQKPGQPPKLLIYDTSKVASGVPARFSGSGSGTDFTLTINPVEANDTANYYCQQWRSYPLTFGQGTKLEIK
B3: CD33-TriNKET-A49 (ADI-27749 and a CD33 binding domain) (bispecific antibody, V domains shown)
VH 1: EVQLVESGGGLVKPGGSLRLSCAASGFTFSSYSMNWVRQAPGKGLEWVSSISSSSSYIYYADSVKGRFTISRDNAKNSLYLQMNSLRAEDTAVYYCARGAPMGAAAGWFDPWGQGTLVTVSS
VL 1: B2 VL 1 with D30S, Y94F
VH 2: B2 VH 2
VL 2: B2 VL 2
B4: NKG2D monoclonal antibody comprising ADI-27749 (antibody, V domains shown)
VH: B3 VH 1
VL: B2 VL 1 with D30S, Y94F
notes: also called A49
B5: CD33-TriNKET-F63 (ADI-29463 and a CD33 binding domain) (bispecific antibody, V domains shown)
VH 1: not shown
VL 1: EIVLTQSPGTLSLSPGERATLSCRASQSVSSNLAWYQQKPGQAPRLLIYGASTRATGIPARFSGSGSGTEFTLTISSLQSEDFAVYYCQQDDYWPPTFGGGTKVEIK
VH 2: B2 VH 2
VL 2: B2 VL 2
B6: NKG2D monoclonal antibody comprising ADI-27744 (antibody, V domains shown)
VH: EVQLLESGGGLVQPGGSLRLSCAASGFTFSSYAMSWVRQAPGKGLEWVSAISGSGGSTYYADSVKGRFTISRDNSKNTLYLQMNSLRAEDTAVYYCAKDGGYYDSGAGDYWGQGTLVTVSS
VL: B2 VL 1
notes: also called A44
B7: soluble mouse Fc-human NKG2D dimer (Fc fusion, UniProt P26718 78-216, looked up)
chain: FLNSLFNQEVQIPLTESYCGPCPKNWICYKNNCYQFFDESKNWYESQASCMSQNASLLKVYSKEDQDLLKLVKSYHWMGLVHIPTNGSWQWEDGSILSPNLLTIIEMQKGDCALYASSFKGYIENCSTPNTYICMQRTV
notes: also called mFc-hNKG2D; fusion protein of human NKG2D and murine Fc; not shown: mouse (murine) Fc
B8: Human monoclonal antibody containing NKG2D-binding domain ADI-29379 (antibody, V domains shown)
VH: QVQLVQSGAEVKKPGASVKVSCKASGYTFTSYYMHWVRQAPGQGLEWMGIINPSGGSTSYAQKFQGRVTMTRDTSTSTVYMELSSLRSEDTAVYYCARGAPNYGDTTHDYYYMDVWGKGTTVTVSS
VL: B5 VL 1 with L4M, G9A, L13V, D91Y, Y93D, P96F
notes: Tested as a human monoclonal antibody; also called E79; ADI-29379 (E79)
B9: Human monoclonal antibody containing NKG2D-binding domain ADI-29378 (antibody, V domains shown)
VH: QVQLVQSGAEVKKPGASVKVSCKASGYTFTSYYMHWVRQAPGQGLEWMGIINPSGGSTSYAQKFQGRVTMTRDTSTSTVYMELSSLRSEDTAVYYCAREGAGFAYGMDYYYMDVWGKGTTVTVSS
VL: B5 VL 1 with G9A, N32Y, G50D, T53N, E70D, Q79E, S80P, D91S, Y93N, P96F
notes: Tested as a human monoclonal antibody; also called E78; ADI-29378 (E78)

Assay [1] addresses B7. As to the kind of experiment: SPR (Biacore 8K, 25 C), captured mouse Fc-human NKG2D, consecutive injections; F47 injected after A44 was bound. An excerpt:
(§1) Briefly, mouse Fc-human NKG2D was captured using an anti-mouse Fc antibody immobilized on a CM5 chip at a density of approximately 100 RU. […] Biacore 8K evaluation software was used for all data analysis.

Assay [2] addresses T1, CD33 expressed on human AML cell line MV4-11 (human, UniProt P20138 18-364).
T1 construct: whole, on cells; also called CD33 expressed on Mv4-11 cells
As to the kind of experiment: flow cytometry on Mv4-11 cells, anti-human IgG secondary, fold over background against secondary antibody control. As for the experimental part: Human AML cell line MV4-11, expressing CD33 was used to assay the binding of TriNKETs to the tumor-associated antigen. TriNKETs and the parental CD33 monoclonal antibody were incubated with the cells, and the binding was detected using fluorophore-conjugated anti-human IgG secondary antibodies. Cells were analyzed by flow cytometry, and fold-over-background (FOB) was calculated using the mean fluorescence intensity (MFI) from TriNKETs and the parental monoclonal CD33 antibody normalized to secondary antibody controls.
For orientation: In flow cytometry, cells or beads pass a laser one at a time.

For assay [3], the target named is T2, human NKG2D expressed on EL4 cells (human, UniProt P26718 1-216).
T2 construct: whole, on cells; also called NKG2D on EL4 cells; extracellular NKG2D expressed on EL4 cells
T2 sequence (looked up): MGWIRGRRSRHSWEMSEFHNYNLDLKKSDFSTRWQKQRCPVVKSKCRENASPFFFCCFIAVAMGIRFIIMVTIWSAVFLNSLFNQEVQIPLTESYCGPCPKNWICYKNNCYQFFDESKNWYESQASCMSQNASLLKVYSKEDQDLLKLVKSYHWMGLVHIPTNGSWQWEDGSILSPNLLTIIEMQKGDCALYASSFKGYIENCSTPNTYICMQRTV
As to the kind of experiment: flow cytometry on EL4 cells expressing NKG2D, anti-human IgG secondary, fold over background against parental EL4 cells. As for the experimental part: EL4 mouse lymphoma cell lines were engineered to express human NKG2D. […] The binding of the multispecific binding proteins to NKG2D was detected using fluorophore-conjugated anti-human IgG secondary antibodies. Cells were analyzed by flow cytometry, and fold-over-background (FOB) was calculated using the mean fluorescence intensity (MFI) of NKG2D expressing cells compared to parental EL4 cells.

Assay [4] deals with B7. As to the kind of experiment: SPR (Biacore 8K), antibody captured on anti-human Fc, soluble mouse Fc-human NKG2D dimer as analyte, 37 C, kd/ka. As for the experimental part:
(§2) Kinetics and affinity of various NKG2D-binding domains were assessed by surface plasmon resonance using Biacore 8K instrument (GE Healthcare). Anti-human Fc antibody was immobilized on a CM5 chip using standard amine coupling chemistry. Human monoclonal antibodies containing various NKG2D-binding domains were captured on the anti-human Fc chip at a density of approximately 100 RU. Solutions containing 0.411-100 nM soluble mouse Fc-human NKG2D dimers were injected over the captured NKG2D antibodies and control surfaces at 30 μl/min at 37° C. Surfaces were regenerated between cycles by quick injection of 10 mM glycine, pH 1.8. To obtain kinetic rate constants, double-referenced data were fit to a 1:1 interaction model using Biacore 8K Evaluation software (GE Healthcare). The equilibrium binding constant KD was determined by the ratio of dissociation constant kd and association constant kₐ (kd/kₐ).
(In general: In SPR one partner is held on a chip, and binding of the other changes the refractive index at the surface.)

In assay [5] the target is B7. As to the kind of experiment: SPR (Biacore 8K), antibody captured on anti-human Fc, soluble mouse Fc-human NKG2D dimer as analyte, 37 C, 1:1 fit. The method, then:
as §2

Assay [6] concerns the target B7. The experiment in a line: SPR (Biacore 8K); lower end of the group's range, tied to ADI-27744 by Table 9. As for the experimental part: as §2
Assay [7] addresses T3, ULBP6 (NKG2D natural ligand) (Homo sapiens (Human), UniProt Q5VY80 26-218).
T3 sequence: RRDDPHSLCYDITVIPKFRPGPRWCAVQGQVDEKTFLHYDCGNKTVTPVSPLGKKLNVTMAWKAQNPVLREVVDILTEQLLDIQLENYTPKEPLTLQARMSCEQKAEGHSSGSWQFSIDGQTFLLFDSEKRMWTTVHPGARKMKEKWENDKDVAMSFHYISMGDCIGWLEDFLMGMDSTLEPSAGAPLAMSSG
The experiment in a line: SPR (Biacore 8K, 25 C), captured mouse Fc-human NKG2D, consecutive injections; ULBP6 injected after A44 (ADI-27744 antibody) was bound.
Source text: as §1

Numbering of substitutions follows the chain as printed.

T1 sequence (P20138 18-364): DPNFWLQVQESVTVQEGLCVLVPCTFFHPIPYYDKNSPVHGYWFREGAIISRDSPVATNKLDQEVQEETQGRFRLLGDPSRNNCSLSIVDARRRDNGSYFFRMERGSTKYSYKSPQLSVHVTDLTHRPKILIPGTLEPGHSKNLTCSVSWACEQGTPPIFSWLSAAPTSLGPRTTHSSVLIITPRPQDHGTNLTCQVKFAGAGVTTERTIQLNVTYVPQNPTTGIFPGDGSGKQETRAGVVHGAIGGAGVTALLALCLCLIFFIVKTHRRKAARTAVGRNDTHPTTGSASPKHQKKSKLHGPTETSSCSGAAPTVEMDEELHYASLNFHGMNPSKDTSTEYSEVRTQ

Take B1: the binding result in assay [1] is “binds”.
On to B2, for which the binding result in assay [2] and in assay [3] was “binds” each time.
For the molecule B3, the binding result in assay [2] and in assay [3] was “binds” in each case.
In general, Kd refers to the constant that tells how readily two partners part at equilibrium. Read a high Kd as weaker binding. What is called koff is the first-order rate constant of dissociation. As a reminder, the kon is the second-order rate constant of association. A lower kon goes with slower complex formation. For B4, binding in assay [4] was characterised by a dissociation constant (Kd) of 12.4 nM. Also, in assay [5], the koff turned out to be 0.00489 s⁻¹ and the kon was found to be 395000 M⁻¹ s⁻¹.
B5: the binding result in assay [2] was “binds”.
As to B6, the dissociation constant (Kd) is 10 to 62 nM in assay [6] and 10.1 nM in assay [4]. Moreover, the koff in assay [5] stood at 0.00299 s⁻¹. In assay [5], the kon worked out at 295000 M⁻¹ s⁻¹.
With B7, the binding result in assay [7] is “binds”.
In assay [4], B8 gave a Kd of 50.7 nM. Further, in assay [5], the koff is 0.0225 s⁻¹ and the kon turned out to be 443000 M⁻¹ s⁻¹.
As to B9, the affinity in assay [4], expressed as Kd, was 58.5 nM. In addition, in assay [5], the koff was 0.0487 s⁻¹ and the kon was determined as 832000 M⁻¹ s⁻¹.

Source of the values: patent publication US20240076384A1 (DRAGONFLY THERAPEUTICS, published 2024).
